{
  "source": "patent US10874724B2",
  "about": "“Enzymatic immunomodulation of solid tumors and uses thereof” (University of Houston System, priority 2015, dated 2020)",
  "key": {"[1]": {"system": "4T1 cells", "test": "Wound healing assay", "assay_type": "cell-based", "conditions": "10 μM Adenosine or 50 μM ADA or both; wound area at 48 hrs", "method": "Briefly, 4T1 cells were cultured to confluence in 35 mm dishes in triplicates. 12 hrs later cell were rinsed with PBS and starved in low serum media (1.5 ml; 0.5%-0.1% serum in RPMI) overnight. […] Pictures were taken immediately of the wound area in phase contrast and 10× and another at 48 hrs. Wound area was calculated using imagej and plotted."}, "[2]": {"system": "HT29 cells", "test": "Effect of cAdo on cell proliferation (WST 1)", "assay_type": "cell-based", "conditions": "cAdo at 10 μM and above, WST 1 after 5 days", "method": "10^4 cells were seeded in 96 well dish in 100 μl. 12 hrs later the cells were treated with […] and 50 μM of cAdo and the cells were later assayed for cell number quantitatively using WST 1 reagent after 5 days. Briefly 10 μl of WST1 reagent was added to each well. The cells were incubated for 4 hrs. OD was measured using microtiter plate reader at 460 nm."}, "[3]": {"test": "Stability of mADA enzymatic activity in cell culture medium", "assay_type": "physicochemical", "conditions": "culture medium of 4T1, MCF7 and T47D cells; supernatant after 24 h, 48 h and 72 h; even after 3 days", "method": "4T1, MCF7 and T47D cells (1×10^5) were grown in 96 wells culture dish."}, "[4]": {"test": "Enzyme activity of mADA-His and mADA-Fc (Adenosine Deaminase Assay Kit)", "assay_type": "biochemical", "conditions": "supernatant media of transfected HEK293F cells; OD at 550 nm", "method": "Enzyme activity of mADA-His and mADA-Fc was assayed with Adenosine Deaminase Assay Kit (BQ 014-EALD). Briefly the 180 μl of reagent 1 was added to 96-well plate. Followed by 5 μl of supernatant media obtained from HEK293F cells transfected with mADA-His or mADA-Fc. Later 90 μl of reagent was added to each well and incubated for 8 mins at 37° C. The OD was measured at 550 nm."}, "[5]": {"conditions": "intramuscular injection; cited from earlier work"}},
  "data": [
    {"molecule": "Nc1ncnc2c1ncn2[C@@H]1O[C@H](CO)[C@@H](O)[C@H]1O", "note": "[Ado, adenosine, reference compound]", "values": [
      {"measurement": "Wound healing ability of 4T1 cells", "setting": "[1]", "result": "marginally promoted wound healing"}
    ]},
    {"molecule": "Nc1nc(Cl)nc2c1ncn2[C@@H]1O[C@H](CO)[C@@H](O)[C@H]1O", "note": "[cAdo, 2-chloro Ado]", "values": [
      {"measurement": "Rate of cell proliferation", "setting": "[2]", "result": "marginal increase"}
    ]},
    {"molecule": "mADA: recombinant purified mouse adenosine deaminase (protein, UniProt P03958 2-352, looked up) Adenosine deaminase: AQTPAFNKPKVELHVHLDGAIKPETILYFGKKRGIALPADTVEELRNIIGMDKPLSLPGFLAKFDYYMPVIAGCREAIKRIAYEFVEMKAKEGVVYVEVRYSPHLLANSKVDPMPWNQTEGDVTPDDVVDLVNQGLQEGEQAFGIKVRSILCCMRHQPSWSLEVLELCKKYNQKTVVAMDLAGDETIEGSSLFPGHVEAYEGAVKNGIHRTVHAGEVGSPEVVREAVDILKTERVGHGYHTIEDEALYNRLLKENMHFEVCPWSSYLTGAWDPKTTHAVVRFKNDKANYSLNTDDPLIFKSTLDTDYQMTKKDMGFTEEEFKRLNINAAKSSFLPEEEKKELLERLYREYQ", "values": [
      {"measurement": "ADA enzyme activity in cell culture medium", "setting": "[3]", "result": "retained its activity"}
    ]},
    {"molecule": "mADA-His: mADA with His tag expressed in HEK293F cells, purified with Ni-NTA column (protein, UniProt P03958 2-352, looked up, His tag) Adenosine deaminase: AQTPAFNKPKVELHVHLDGAIKPETILYFGKKRGIALPADTVEELRNIIGMDKPLSLPGFLAKFDYYMPVIAGCREAIKRIAYEFVEMKAKEGVVYVEVRYSPHLLANSKVDPMPWNQTEGDVTPDDVVDLVNQGLQEGEQAFGIKVRSILCCMRHQPSWSLEVLELCKKYNQKTVVAMDLAGDETIEGSSLFPGHVEAYEGAVKNGIHRTVHAGEVGSPEVVREAVDILKTERVGHGYHTIEDEALYNRLLKENMHFEVCPWSSYLTGAWDPKTTHAVVRFKNDKANYSLNTDDPLIFKSTLDTDYQMTKKDMGFTEEEFKRLNINAAKSSFLPEEEKKELLERLYREYQ", "values": [
      {"measurement": "Enzyme activity in supernatant", "setting": "[4]", "result": "enzymatically active"}
    ]},
    {"molecule": "ADA: Adenosine deaminase (EC 3.5.4.4), enzyme degrading Ado into inosine and ammonia (protein, UniProt P00813 2-363, looked up) Adenosine deaminase: AQTPAFDKPKVELHVHLDGSIKPETILYYGRRRGIALPANTAEGLLNVIGMDKPLTLPDFLAKFDYYMPAIAGCREAIKRIAYEFVEMKAKEGVVYVEVRYSPHLLANSKVEPIPWNQAEGDLTPDEVVALVGQGLQEGERDFGVKARSILCCMRHQPNWSPKVVELCKKYQQQTVVAIDLAGDETIPGSSLLPGHVQAYQEAVKSGIHRTVHAGEVGSAEVVKEAVDILKTERLGHGYHTLEDQALYNRLRQENMHFEICPWSSYLTGAWKPDTEHAVIRLKNDQANYSLNTDDPLIFKSTLDTDYQMTKRDMGFTEEEFKRLNINAAKSSFLPEDEKRELLDLLYKAYGMPPSASAGQNL", "values": [
      {"measurement": "Wound healing ability of 4T1 cells", "setting": "[1]", "result": "did not alter the wound healing ability"}
    ]},
    {"molecule": "bADA: bovine adenosine deaminase; PEGylated bADA is FDA approved (protein, UniProt P56658 2-363, looked up) Adenosine deaminase: AQTPAFNKPKVELHVHLDGAIKPETILYYGRKRGIALPADTPEELQNIIGMDKPLSLPEFLAKFDYYMPAIAGCREAVKRIAYEFVEMKAKDGVVYVEVRYSPHLLANSKVEPIPWNQAEGDLTPDEVVSLVNQGLQEGERDFGVKVRSILCCMRHQPSWSSEVVELCKKYREQTVVAIDLAGDETIEGSSLFPGHVKAYAEAVKSGVHRTVHAGEVGSANVVKEAVDTLKTERLGHGYHTLEDATLYNRLRQENMHFEVCPWSSYLTGAWKPDTEHPVVRFKNDQVNYSLNTDDPLIFKSTLDTDYQMTKNEMGFTEEEFKRLNINAAKSSFLPEDEKKELLDLLYKAYGMPSPASAEQCL", "values": [
      {"measurement": "Toxicity", "setting": "[5]", "result": "not shown any toxicity"}
    ]}
  ]
}
